Results from patent US20250320269A1 (ALBERT EINSTEIN COLLEGE OF MEDICINE, published 2025).

T1: Human B7-H3 (human, UniProt Q5ZPR3 29-461, limits assumed)
T1 construct: also called human B7-H3 protein; CD276
T1 sequence (looked up): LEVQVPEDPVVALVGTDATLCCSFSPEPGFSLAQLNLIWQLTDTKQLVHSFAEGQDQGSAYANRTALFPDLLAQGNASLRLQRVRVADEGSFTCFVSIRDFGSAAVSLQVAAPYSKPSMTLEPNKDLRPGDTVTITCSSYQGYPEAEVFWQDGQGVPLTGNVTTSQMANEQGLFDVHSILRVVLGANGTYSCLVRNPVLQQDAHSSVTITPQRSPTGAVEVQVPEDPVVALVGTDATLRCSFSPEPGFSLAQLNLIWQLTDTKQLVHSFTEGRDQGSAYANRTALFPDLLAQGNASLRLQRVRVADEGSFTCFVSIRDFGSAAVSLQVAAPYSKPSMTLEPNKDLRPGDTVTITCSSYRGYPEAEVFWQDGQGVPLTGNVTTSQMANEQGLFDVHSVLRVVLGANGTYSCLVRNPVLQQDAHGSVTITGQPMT

T2: Mouse B7-H3 (mouse, UniProt Q8VE98 29-244, limits assumed)
T2 construct: also called mouse B7-H3 protein
T2 sequence (looked up): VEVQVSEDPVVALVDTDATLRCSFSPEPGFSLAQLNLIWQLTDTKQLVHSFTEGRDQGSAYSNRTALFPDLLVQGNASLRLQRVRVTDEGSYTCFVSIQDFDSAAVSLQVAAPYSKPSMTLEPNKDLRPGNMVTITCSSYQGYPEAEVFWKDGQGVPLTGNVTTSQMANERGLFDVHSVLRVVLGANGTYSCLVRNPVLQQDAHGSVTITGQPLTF


Legend:
Human B7-H3 = target: T1, Human B7-H3; experiment: surface plasmon resonance
Mouse B7-H3 = target: T2, Mouse B7-H3; experiment: surface plasmon resonance

Binder | Kd (Human B7-H3) [nM] | Kd (Mouse B7-H3) [nM]
12B4 mAb (antibody, V domains shown, Mouse hybridoma mAb, IgG3 with kappa chain; also called 124; 1214) VH: QVQLQQPGAELVKPGASVKLSCKASGYTFTSYWMHWVKQRPGQGLEWIGMIHPNSGSTNYNEKFKSKATLTVDKSSSTAYMQLSSLTSEDSAVYYCARYYYGSSYAMDYWGQGTSVTVS VL: QIVLTQSPAIMSASPGEKVTITCSASSSVSYMHWFQQKPGTSPKLWIYSTSNLASGVPARFSGSGSGTSYSLTISRMEAEDAATYYCQQRSSYPYTFGGGTKLEIKR | 5.62 | 1.71
1G5 mAb (antibody, V domains shown, Mouse hybridoma mAb, IgG3 with kappa chain) VH: QVQLQQPGAELVKPGASVKLSCKASGYTFTSYWMHWVKQRPGQGLEWIGMIHPNSGSTNYNEKFKSKATLTVDKSSSTAYMQLSSLTSEDSAVYYCARGGYFDYWGQGTTLTVSS VL: DIVMTQSQKFMSTSVGDRVSVTCKASQNVGTNVAWYQQKPGQSPKALIYSASYRYSGVPDRFTGSGSGTDFTLTISNVQSEDLAEYFCQQYNSYPYTFGGGTKLEIKR | 4.86 | 0.81
15F9 mAb (antibody, V domains shown, Mouse hybridoma mAb, IgG3 with kappa chain) VH: QVQLQQPGAELVKPGASVKLSCKASGYTFTNYWMHWVKQRPGQGLEWIGMIHPNSGSTNYNEKFKSKATLTVDKSSSTAYMQLSSLTSEDSAVYYCARRGDGDYWGQGTTLTVSS VL: DIQMTRHPSSLSASMGERVSLTCRASQEISGYLSWLQQKPDGTIKRLIYAASTLDSGVPKRFSGSRSGSDYSLTISSLESEDFADYYCLQYASYPYTFGGGTKLEI | 4.51 | 1.76
23B2 mAb (antibody, V domains shown, Mouse hybridoma mAb, IgG1 with kappa chain; also called 231B2) VH: QVQLQQPGAELVKPGASVKLSCKASGYTFTSYWMHWVKQRPGQGLEWIGMIHPNSGSTNYNEKFKSKATLTVDKSSSTAYMQLSSLTSEDSAVYYCARESRQLDYWGQGTTLTVSS VL: QIVLTQSPAIMSASPGEKVTMTCSASSSISYMHWYQQKPGTSPKRWIYDTSKLASGVPARFSGSGSGTSYSLTISSMEAEDAATYYCHQRSSYPLTFGAGTKLELK | 11.1 | 10.2

More lines, in order of falling Kd (Human B7-H3), values ahead:

Kd (Human B7-H3) [nM] | Kd (Mouse B7-H3) [nM] | Binder
4.51 | 1.76 | 24D12 mAb (antibody, V domains shown) VH: QVQLQQPGAELVKPGASVKLSCKASGYTFTSYWMHWVKQRPGQGLEWIGMIHPNSGSTNYNEKFKSKATLTVDKSSSTAYMQLSSLTSEDSAVYYCANYYGTNVWGTGTTVTVS VL: DIVLTQSPASLAVSLGQRATISYRASKSVSTSGYSYMHWNQQKPGQPPRLLIYLVSNLESGVPARFSGSGSGTDFTLNIHPVEEEDAATYYCQHIREAYTFGRG
0.32 | 4.01 | 8B12 mAb (antibody, V domains shown, Mouse hybridoma mAb, IgG3 with kappa chain; also called 8K12; 81812) VH: QVQLQQPGAELVKPGASVKMSCKASGYTFTSYWITWVKQRPGQGLEWIGDIYPGSGSTNYNEKFKSKATLTVDTSSSTAYMQLSSLTSEDSAVYYCARGGTRFSPFAYWGQGTLVTVSA VL: DVLMTQTPLSLPVSLGDQASISCRSSQSIVHSNGNTYLEWYLQKPGQSPKLLIYKVSNRFSGVPDRFSGSGSGTDFTLKISRVEAEDLGVYYCFQGSHVPWTFGGGTKLEIKR
